What all share (assay): high-throughput RNA pulldown from lysate on Ni-NTA beads; HRP: 50 mM Tris pH 8, 150 mM NaCl, 1 mM beta-mercaptoethanol, 50 ug/ml BSA, 3 ug/ml yeast RNA, 0.5% heparin; ITC and FP: Tris pH 8, 200 mM KCl, 5% glycerol; MST: 50 mM Tris pH 8, 200 mM NaCl, 1 mM DTT, BSA, heparin, 0.05% Tween 20
Conditions in all cases: tags: N-terminal His-eGFP

The target in series [1] is T1, GFP-9S library array, motif 4 ND N98C;D124P (synthetic construct, N98C;D124P).
T1 chain: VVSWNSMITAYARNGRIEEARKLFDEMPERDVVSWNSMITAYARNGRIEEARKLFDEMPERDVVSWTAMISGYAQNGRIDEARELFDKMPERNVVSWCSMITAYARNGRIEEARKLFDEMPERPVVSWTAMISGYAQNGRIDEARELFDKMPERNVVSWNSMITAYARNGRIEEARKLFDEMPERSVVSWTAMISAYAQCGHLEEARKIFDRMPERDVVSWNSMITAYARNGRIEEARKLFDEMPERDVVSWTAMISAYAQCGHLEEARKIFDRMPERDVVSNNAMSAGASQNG

Series [2] deals with T2, GFP-9S library array, motif 4 ND N98V;D124H (synthetic construct, N98V;D124H).
T2 chain: T1 chain with C98V, P124H

For series [3], the target named is T3, GFP-9S library array, motif 4 ND N98R;D124A (synthetic construct, N98R;D124A).
T3 chain: T1 chain with C98R, P124A

In series [4] the target is T4, GFP-9S library array, motif 4 ND N98C;D124Y (synthetic construct, N98C;D124Y).
T4 chain: T1 chain with P124Y

Series [5] has as its target T5, GFP-9S library array, motif 4 ND N98H;D124T (synthetic construct, N98H;D124T).
T5 chain: T1 chain with C98H, P124T

The results in this text go back to article PMC8809517, “Cofactor-independent RNA editing by a synthetic S-type PPR protein”.

Where a chain is given by its changes, count along the chain named.

What is called Kd is the free concentration of one partner at which half of the binding sites on the other are occupied at equilibrium, for simple one-to-one binding. A high value points to weaker binding.

B1: Cy5-rpoA (ssRNA)
RNA: AUUACACGUGA
Turning to B1, the dissociation constant (Kd) stood at 272 nM in series [1] (label: 5' Cy5); 160 nM in series [2] (label: 5' Cy5); 75.1 nM in series [3] (label: 5' Cy5); 56.9 nM in series [4] (label: 5' Cy5); 50.9 nM in series [5] (label: 5' Cy5).

B2: IR-rpoA-A (ssRNA)
RNA: AUUAAACGUGA
Consider B2, for which the Kd was 263 nM in series [1] (label: 5' IRDye 800CW); 209 nM in series [2] (label: 5' IRDye 800CW); 145 nM in series [3] (label: 5' IRDye 800CW); 217 nM in series [4] (label: 5' IRDye 800CW); 103 nM in series [5] (label: 5' IRDye 800CW).

B3: IR-rpoA-U (ssRNA)
RNA: AUUAUACGUGA
On to B3, for which the Kd in series [1] (label: 5' IRDye 800CW) was 351 nM; in series [2] (label: 5' IRDye 800CW), 219 nM; in series [3] (label: 5' IRDye 800CW) it was 114 nM; in series [4] (label: 5' IRDye 800CW) it was 94.2 nM; in series [5] (label: 5' IRDye 800CW), 24.9 nM.

B4: Cy5-rpoA-G (ssRNA)
RNA: AUUAGACGUGA
Consider B4, for which the Kd was determined as 321 nM in series [1] (label: 5' Cy5); 155 nM in series [2] (label: 5' Cy5); 89.4 nM in series [3] (label: 5' Cy5); 72.3 nM in series [4] (label: 5' Cy5); 75 nM in series [5] (label: 5' Cy5).
